± gives the standard deviation of the averaged measurements.
B1: library; a variant is named by its letters at N, in order (parent)
chain: GCUGUCACCGGUGCUUGGUACGUUAUAUUCAGCCGGUCUGAUGAGUCUNNNNNNAGACGAAACAGC

Tests used:
(6R,S)-folinic acid [1] = variants of: B1; test: normalized RNA/DNA level without ligand (relative to sTRSVctl = 100) (log10 (% of sTRSVctl)); HEK293T overexpressing SLC46A1; higher = less ribozyme self-cleavage, higher mRNA level; conditions: without (6R,S)-folinic acid; ligand present: no
Procedure, shortened: (§1)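 HEK293T cells were transfected with library plasmids carrying ribozyme switches linked to an mCherry reporter, or an eGFP reporter in some ligand experiments, at 4 µg per well of a 6-well plate, with any ligand added 1 h beforehand. After 72 h, total RNA was extracted with EDTA, reverse-transcribed, amplified, barcoded and sequenced. RNA level was defined as RNA reads over DNA reads, normalized to a spiked-in non-cleaving sequence or to the top-ranked sequences. That value was multiplied by 100 and converted to log10, the top set was 25 sequences, and only sequences with ≥100 DNA reads were retained.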

(6R,S)-folinic acid [2] = variants of: B1; test: normalized RNA/DNA level with ligand (relative to sTRSVctl = 100) (log10 (% of sTRSVctl)); HEK293T overexpressing SLC46A1; ligand concentration (+) RNA-Seq: 6 mM; higher = less ribozyme self-cleavage, higher mRNA level; conditions: with (6R,S)-folinic acid; ligand present: yes
Procedure, shortened: as §1

Row | Variant | normalized RNA/DNA level without ligand (log10) ((6R,S)-folinic acid [1]) | normalized RNA/DNA level with ligand (log10) ((6R,S)-folinic acid [2])
1 | GCUGUCACCGGUGCUUGGUACGUUAUAUUCAGCCGGUCUGAUGAGUCUUACUUCAGACGAAACAGC [UACUUC] | 2.0503 ± 0.00055 | 2.03 ± 0.042
2 | GCUGUCACCGGUGCUUGGUACGUUAUAUUCAGCCGGUCUGAUGAGUCUGCAAUCAGACGAAACAGC [GCAAUC] | 2.03 ± 0.02 | 2.03 ± 0.038
3 | GCUGUCACCGGUGCUUGGUACGUUAUAUUCAGCCGGUCUGAUGAGUCUACACGUAGACGAAACAGC [ACACGU] | 2.023 ± 0.013 | 2.03 ± 0.022
4 | GCUGUCACCGGUGCUUGGUACGUUAUAUUCAGCCGGUCUGAUGAGUCUAACUAGAGACGAAACAGC [AACUAG] | 1.94 ± 0.022 | 2.02 ± 0.039
5 | GCUGUCACCGGUGCUUGGUACGUUAUAUUCAGCCGGUCUGAUGAGUCUCUCCUCAGACGAAACAGC [CUCCUC] | 2.06 ± 0.057 | 1.99 ± 0.053
6 | GCUGUCACCGGUGCUUGGUACGUUAUAUUCAGCCGGUCUGAUGAGUCUAGGUACAGACGAAACAGC [AGGUAC] | 1.982 ± 0.0027 | 1.995 ± 0.0077
7 | GCUGUCACCGGUGCUUGGUACGUUAUAUUCAGCCGGUCUGAUGAGUCUCACUUCAGACGAAACAGC [CACUUC] | 2.04 ± 0.03 | 2.026 ± 0.012
8 | GCUGUCACCGGUGCUUGGUACGUUAUAUUCAGCCGGUCUGAUGAGUCUCCUCAAAGACGAAACAGC [CCUCAA] | 2.0335 ± 0.00095 | 2 ± 0.059
9 | GCUGUCACCGGUGCUUGGUACGUUAUAUUCAGCCGGUCUGAUGAGUCUCCGGCCAGACGAAACAGC [CCGGCC] | 2.094 ± 0.013 | 2.03 ± 0.013
10 | GCUGUCACCGGUGCUUGGUACGUUAUAUUCAGCCGGUCUGAUGAGUCUAUUUCAAGACGAAACAGC [AUUUCA] | 2.036 ± 0.012 | 2.01 ± 0.026
11 | GCUGUCACCGGUGCUUGGUACGUUAUAUUCAGCCGGUCUGAUGAGUCUGGUUCUAGACGAAACAGC [GGUUCU] | 2.0626 ± 0.0019 | 2.05 ± 0.049
12 | GCUGUCACCGGUGCUUGGUACGUUAUAUUCAGCCGGUCUGAUGAGUCUUUUCCUAGACGAAACAGC [UUUCCU] | 2.0566 ± 0.0006 | 2.058 ± 0.018
13 | GCUGUCACCGGUGCUUGGUACGUUAUAUUCAGCCGGUCUGAUGAGUCUCCCAUAAGACGAAACAGC [CCCAUA] | 2.02 ± 0.036 | 2.03 ± 0.05
14 | GCUGUCACCGGUGCUUGGUACGUUAUAUUCAGCCGGUCUGAUGAGUCUACCGCUAGACGAAACAGC [ACCGCU] | 2.07 ± 0.026 | 2.08 ± 0.028
15 | GCUGUCACCGGUGCUUGGUACGUUAUAUUCAGCCGGUCUGAUGAGUCUACCACGAGACGAAACAGC [ACCACG] | 2.023 ± 0.0076 | 2.061 ± 0.003
16 | GCUGUCACCGGUGCUUGGUACGUUAUAUUCAGCCGGUCUGAUGAGUCUGUACCCAGACGAAACAGC [GUACCC] | 2.02 ± 0.03 | 2.03 ± 0.06
17 | GCUGUCACCGGUGCUUGGUACGUUAUAUUCAGCCGGUCUGAUGAGUCUUUUAAAAGACGAAACAGC [UUUAAA] | 1.934 ± 0.0037 | 1.97 ± 0.047
18 | GCUGUCACCGGUGCUUGGUACGUUAUAUUCAGCCGGUCUGAUGAGUCUUAGCUUAGACGAAACAGC [UAGCUU] | 2.001 ± 0.012 | 2.02 ± 0.029
19 | GCUGUCACCGGUGCUUGGUACGUUAUAUUCAGCCGGUCUGAUGAGUCUUCUUUAAGACGAAACAGC [UCUUUA] | 2.001 ± 0.0056 | 2 ± 0.015
20 | GCUGUCACCGGUGCUUGGUACGUUAUAUUCAGCCGGUCUGAUGAGUCUACCUCUAGACGAAACAGC [ACCUCU] | 2.019 ± 0.0056 | 2.014 ± 0.015
21 | GCUGUCACCGGUGCUUGGUACGUUAUAUUCAGCCGGUCUGAUGAGUCUCGAACUAGACGAAACAGC [CGAACU] | 2 ± 0.023 | 2 ± 0.05

From the supplement of paper PMC6757056
